T1: Bone marrow stromal antigen 1 (BST1), human, on the cell surface (human, UniProt Q10588 33-293)
T1 construct: This is endogenous BST1 on A549, H226 and U937 cells and on primary MDS bone marrow cells; also called ADP-ribosyl cyclase 2; CD157
T1 sequence: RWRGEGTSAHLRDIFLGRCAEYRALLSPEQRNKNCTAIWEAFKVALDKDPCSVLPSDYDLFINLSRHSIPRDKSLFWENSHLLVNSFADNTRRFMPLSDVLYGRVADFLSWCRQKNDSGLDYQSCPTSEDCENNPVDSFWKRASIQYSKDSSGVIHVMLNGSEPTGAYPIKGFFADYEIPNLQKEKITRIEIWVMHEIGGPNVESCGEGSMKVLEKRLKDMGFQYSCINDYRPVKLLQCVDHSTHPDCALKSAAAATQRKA

B1: BST1_A1 (Fab, V domains shown)
VH: QVKLQQSGAELVRPGSSVKISCKASGYAFSNSWINWVKQRPGQGLEWIGQIYPGDYDTNYNGKFKGKATLTADYSSSTAYMQLNSLTSEDSAVYFCARGGSIYYGNLGFFDVWGAGTTVTVSS
VL: EMVLTQSPAIMSTSLGERVTMTCTASSRVSSSYLHWYQQKPGSSPKLWIYSTSNLASGVPARFSGSGSGTSYSLTISSMEAEDAATYYCHQYHRSPYTFGGGTKLEIKR
notes: also called anti-BST1 monoclonal antibody BST1_A1
B2: BST1_A2 (Fab, V domains shown)
VH: QAYLQQSGPELVKAGASVKMSCKASGYSFIEYTINWVKQSHGKSLEWIGNIDPYYGTTYYNQMFTGKATLTVDQSSNTAYMQLKSLTSEDSAVYFCARGSAWFPYWGQGTLVTVSA
VL: DIVMSQSPAIMSASPGEKVTMTCSASSSVTYMYWYQQKPGSSPRLLIYDTSNLASGVPVRFSGSGSGTSYSLTISRMEAEDTATYYCQQWSNYPLTFGAGTKLELKR
notes: they are whole murine Fab chains: bacterial leader, variable domain and constant domain, with a His tag on the heavy chain; also called anti-BST1 monoclonal antibody BST1_A2
B3: BST1_A3 (Fab, V domains shown)
VH: QVQLQQSRAELVMPGASVKMSCKTSGYTFSDYWVHWVRQRPGQGLEWIGAIDGSDTFNDYSQKFKGRATLTVDESSSTVYMQLSSLTSEDSAVYYCARGGLLQYWGQGTTLTVSS
VL: DIQLTQSPASLSASVGETVTITCRASENIYSYLAWYQQKQGKSPQLLVYNTKTLGEGVPSRFSGSGSGTQFSLKINSLQPEDFGSYYCQHHYGTPFTFGSGTKLEIKR
notes: they are whole murine Fab chains: bacterial leader, variable domain and constant domain, with a His tag on the heavy chain

Target: T1, Bone marrow stromal antigen 1 (BST1), …
Test: flow cytometry on BST1-expressing H226 and A549 cells, PE-labelled secondary antibody, geometric mean fluorescence (PE GMFI); antibody concentration not given
Protocol: The specificity of antibodies against the BST1 selected in Example 2 was tested by flow cytometry. To test the ability of the antibodies to bind to the cell surface BST1 protein, the antibodies were incubated with the BST1-expressing cells, A549 and H226, from human lung adenocarcinoma and human lung squamous carcinoma, respectively. Cells were washed in FACS buffer (DPBS, 2% FBS), centrifuged and resuspended in 100 μl of the diluted primary BST1 antibody (also diluted in FACS buffer). The antibody-A549 complex was incubated on ice for 60 min and then washed twice with FACS buffer as described above. The cell-antibody pellet was resuspended in 100 μl of the diluted secondary antibody (also diluted in FACS buffer) and incubated on ice for 60 min on ice. The pellet was washed as before and resuspended in 200 μl FACS buffer. The samples were loaded onto the BD FACScanto II flow sytometer and the data analyzed using the BD FACSdiva software.

binding result	Binder
binds	B1
binds	B2
binds	B3

Reference: US20210032360A1 (BERLIN CHEMIE, published 2021)
